{
  "source": "patent US20020107174A1",
  "about": "“COMPOSITION COMPRISING ENDOTOXIN NEUTRALIZING PROTEIN AND DERIVATIVES AND USES THEREOF” (priority 1998, published 2002)",
  "key": {"[1]": {"tested_on": "Propionibacterium acnes, ATCC No. 11827", "test": "Zone inhibition assay", "format": "cell-based", "settings": "4 mm disc treated with 10 μl (Limulus ENP 1 mg/ml; benzoyl peroxide 0.05%), overnight at 37° C.", "method": "The inhibitory effect of a recombinant Limulus ENP (i.e., that expressed from the fusion protein II construct discussed above) was tested against Propionibacterium acnes, the bacterium that causes acne, using a zone inhibition assay. Petri dishes were filled with sterile nutrient agar following standard microbiological procedures. The nutrient agar-filled dishes were allowed to cool and harden before being inoculated with test bacteria. Using a sterile swab, the surface of the petri dishes were inoculated with a culture of Propionibacterium acnes, ATCC No. 11827, that had grown overnight at 37° C.\nSterile filter paper discs (4 mm, Whatman) were treated with 10 μl of aqueous solutions of (1) recombinant Limulus ENP at a concentration of 1 mg/ml (the test sample); (2) benzoyl peroxide at a concentration of 0.05% (the positive control); or (3) sterile saline (the negative control). Benzoyl peroxide serves as a positive control because it is known to inhibit the growth of Propionibncterium acnes.\nThe treated filter paper discs were placed on the inoculated plates and the plates incubated overnight at 37° C. The Limulus ENP disc produced a zone of inhibition having a diameter of 4-5 mm. The benzoyl peroxide disc produced a zone of inhibition having a diameter of 10-11 mm. The negative control disc produced no zone of inhibition."}, "[2]": {"tested_on": "E. coli strain 25303", "test": "Growth inhibition of E. coli in Luria broth, optical density (LAL 5000)", "format": "cell-based", "method": "E. coli cells were cultured overnight at 37° C. in LB. Aliquots were diluted 1:100 in fresh LB (control). LB plus PMB was serially diluted from 0.25 μg/ml to 0.001 μg/ml. LB plus Limulus ENP was formulated at concentrations from 20 to 0.07,μg/ml. Optical density of the cell culture was recorded at 410 nm during the course of the experiment.\nThe tubes were then inoculated with cells of a log phase E. coli culture.\nTET was serially diluted with LB in ten-fold increments from 10 μg/ml to 0.0001 μg/ml.\nE. coli cells were cultured overnight at 37° C. in LB. Aliquots of the culture were diluted 1:100 in fresh LB as controls. Test samples consisted of cells in: LB plus AMP at 2.5 μg/ml; LB plus Limulus ENP at 25 and 5 μg/ml; and combination of 2.5 μg/ml AMP and either 2.5 or 5.0 μg/ml Limulus ENP. Optical density of the cell samples was recorded at 410 nm during the course of the experiment."}, "[3]": {"tested_on": "Bortadella sp.", "test": "Growth inhibition of Bortadella sp., optical density", "settings": "GMS alone", "experimental": "An LAL 5000 spectrophotometer (Associates of Cape Cod) was used to monitor optical density changes over time when bacteria were grown in sterilized Luria broth (LB). The LAL 5000 can accommodate up to 32 individual 10×75 mm glass test tubes in its circular array. Automated temperature control was maintained at 37° C. for these experiments. LB was placed into sterile, oven depyrogenated glass test tubes. […] Other gram-negative (E. coli strains Rosenbergii sp., K12, X10, HB101, Shewanella sp., Bortadella sp.) and gram-positive bacteria (e.g., S. aureus, and Bacillus spp.) were grown in this manner and changes in optical density were monitored over time. The optical density data was collected, stored and analyzed by computer which was interfaced with the LAL 5000.\nThe tubes were then inoculated with cells from a log phase culture of Bortadella sp. Optical density of each tube was monitored via method described above."}, "[4]": {"tested_on": "E. coli cultures", "test": "Endotoxin levels in antibiotic-inhibited cultures, Limulus amebocyte lysate (LAL) assay", "format": "cell-based", "method": "Antibiotic-inhibited gram-negative bacteria release endotoxins into the medium. […] E. coli cultures treated with antibiotic alone or in combination with Limulus ENP were prepared and incubated as described in Sections 6.3.1 and 6.3.2, above. The endotoxin levels present in the cultures were measured using the standard Limulus amebocyte lysate (LAL) assay."}, "[5]": {"tested_on": "meningococcal endotoxins", "settings": "rabbits, cited from earlier work"}, "[6]": {"tested_on": "E. coli endotoxins", "settings": "rabbits, cited from earlier work"}, "[7]": {"tested_on": "uncharacterized gram-positive bacterium isolated from marine organisms", "test": "Growth inhibition of gram-positive bacterium from marine organisms, optical density at 410 nm", "format": "cell-based", "settings": "Limulus ENP at 2.5 or 5 μg/ml", "method": "An uncharacterized gram-positive bacterium isolated from marine organisms was cultured overnight at 37° C. in LB. Aliquots of the culture were diluted 1:100 in fresh LB as controls. Test samples consisted of cells in LB plus LimulusENP at 2.5 or 5.0 μg/ml. The control and Limulus ENP-treated cultures were incubated at 37° C. Optical density of the cultures was recorded at 410 nm during the course of the experiment to monitor the growth of the gram-positive bacterium."}, "[8]": {"tested_on": "Pool 4 (Yeast): Candida parapilosis, C. albicans", "test": "Preservative challenge of oil in water emulsion, plate count, Pool 4", "format": "cell-based", "settings": "0.01% (weight/volume) in emulsion, eight week period", "method": "(§1) The cell numbers of the pools were quantitated by serial dilution. That is, the number of viable cells was determined by taking an aliquot from the sample, diluting it and culturing it so that colonies arising from individual cells could be counted.\n(§2) An oil in water emulsion was prepared comprising the following ingredients:\n(§3) To test its antimicrobial activity, Limulus ENP was added to the emulsion to achieve a concentration of about 0.01 weight percent, with appropriate adjustment of distilled water. Control and Limulus ENP-containing emulsions were inoculated with 10^8 viable cells from each of the five microorganism pools. The number of viable microbial cells was determined by plate count at the time of the initial inoculating, and at weekly intervals up to 8 weeks. After obtaining an aliquot for cell count at Week 3, microbes were re-inoculated to initial levels. The weekly cell counts are shown in Table 5 as logs of the cell number."}, "[9]": {"tested_on": "Pool 5 (Fungi): Aspergillus niger", "test": "Preservative challenge of oil in water emulsion, plate count, Pool 5", "format": "cell-based", "settings": "0.01% (weight/volume) in emulsion, eight week period", "method": "as §1, §2, §3"}, "[10]": {"tested_on": "endotoxins", "test": "Biological activity of recombinant Limulus ENP from S. cerevisiae", "settings": "from pCGS965-transformed S. cerevisiae", "text": "In one yeast expression system, an expression construct encoding the aforementioned fusion protein I was inserted into an autonomous replicating plasmid yielding pCGS965 (FIG. 9). This plasmid, in turn, was used to transform S. cerevisiae strain 2470. pCGS965 carries the gene for uracil production, which complements the host strain's auxotrophy for this base. Recombinant Limulus ENP has been expressed, purified, and characterized from pCGS965-transformed cells grown at the 500 liter scale. Fusion protein I was expressed and correctly processed, and the Limulus ENP secreted into the medium. The recombinantly produced Limulus ENP has biological activity identical to that of ENP isolated from Limulus amebocytes."}, "[11]": {"tested_on": "endotoxins or lipid A from gram-negative bacteria", "settings": "ENP added in excess; cited from earlier work"}, "[12]": {"tested_on": "murine splenocytes", "settings": "cited from earlier work"}, "[13]": {"tested_on": "human endothelial cells", "settings": "cited from earlier work"}, "[14]": {"tested_on": "human macrophages", "settings": "cited from earlier work"}, "[15]": {"tested_on": "rough gram-negative bacteria", "settings": "cited from earlier work"}, "[16]": {"tested_on": "Escherichia coli endotoxin", "settings": "rats; cited from earlier work"}, "[17]": {"tested_on": "encapsulated strain of E. coli", "settings": "rats, cited from earlier work"}, "[18]": {"tested_on": "E. coli", "settings": "rabbits; cited from earlier work"}, "[19]": {"settings": "compared with anti-endotoxin antibody HA-1A"}},
  "data": [
    {"molecule": "O=C(OOC(=O)c1ccccc1)c1ccccc1", "note": "[benzoyl peroxide, reference compound]", "values": [
      {"measurement": "zone of inhibition, diameter", "setting": "[1]", "value": "10-11 mm"}
    ]},
    {"molecule": "gentamycin sulfate [GMS]", "values": [
      {"measurement": "effective concentration which substantially inhibits the growth of E. coli", "setting": "[2]; GMS alone, Luria broth", "value": 0.5, "unit": "µg/mL"},
      {"measurement": "lowest effective concentration which almost totally inhibited the growth of Bortadella sp.", "setting": "[3]", "value": 10, "unit": "µg/mL"}
    ]},
    {"molecule": "polymixin B [PMB, reference compound]", "values": [
      {"measurement": "inhibition of growth of E. coli", "setting": "[2]; 0.06 μg/ml PMB alone", "value": "approximately 20%"},
      {"measurement": "lowest effective concentration which totally inhibited the growth of E. coli", "setting": "[2]; PMB alone, Luria broth", "value": 5, "unit": "µg/mL"},
      {"measurement": "ENDOTOXIN LEVEL", "setting": "[4]; E. coli cultures inhibited by PMB at 5 μg/ml", "value": 3.8, "unit": "µg/mL"},
      {"measurement": "physiologic functions or mortality", "setting": "[5]; pretreatment with PMB alone", "value": "failed to improve"},
      {"measurement": "shock and mortality", "setting": "[6]; pretreatment with PMB, potent dose of E. coli endotoxins", "value": "effective in preventing shock and mortality"}
    ]},
    {"molecule": "Limulus ENP: the 11.8 kDa ENP from the horseshoe crab Limulus polyphemus; residues 5 to 105 of SEQ ID NO:2 or SEQ ID NO:5 (protein, listed as Limulus polyphemus) DGIWTQLIFTLVNNLATLWQSGDFQFLDHECHYRIKPTFRRLKWKYKGKFWCPSWTSITGRATKSSRSGAVEHSVRNFVGQAKSSGLITQRQAEQFISQYN", "values": [
      {"measurement": "growth of the gram-positive bacterium", "setting": "[7]", "value": "effectively inhibited"},
      {"measurement": "zone of inhibition, diameter", "setting": "[1]", "value": "4-5 mm"},
      {"measurement": "effect of serum proteins on biological activity, antimicrobial properties and endotoxin binding activity", "setting": "[4]; serum-containing media", "value": "did not adversely affect"},
      {"measurement": "killing and re-growth of the yeasts Candida parapilosis and Candida albicans", "setting": "[8]", "value": "effective at killing and preventing the re-growth"},
      {"measurement": "effect on the fungus Aspergiltus niger", "setting": "[9]", "value": "limited fungal growth"},
      {"measurement": "biological activity compared with ENP isolated from Limulus amebocytes", "setting": "[10]", "value": "identical"}
    ]},
    {"molecule": "ENP: protein found in horseshoe crab amebocyte lysates that binds and neutralizes the biological activity of endotoxins (protein, listed as Limulus polyphemus) DGIWTQLIFTLVNNLATLWQSGDFQFLDHECHYRIKPTFRRLKWKYKGKFWCPSWTSITGRATKSSRSGAVEHSVRNFVGQAKSSGLITQRQAEQFISQYN", "values": [
      {"measurement": "endotoxin activity in the mixture", "setting": "[11]", "value": "greatly reduced"},
      {"measurement": "endotoxin induction of mitogenesis of murine splenocytes", "setting": "[12]", "value": "inhibit"},
      {"measurement": "endotoxin induction of activation of human endothelial cells", "setting": "[13]", "value": "inhibit"},
      {"measurement": "endotoxin induction of release of tumor necrosis factor by human macrophages", "setting": "[14]", "value": "inhibit"},
      {"measurement": "growth of rough gram-negative bacteria", "setting": "[15]", "value": "inhibits the growth"},
      {"measurement": "protection against lethal Escherichia coli endotoxin challenge", "setting": "[16]", "value": "protective"},
      {"measurement": "physiological functions and survival rate", "setting": "[5]; administered 30 minutes after meningococcal endotoxin challenges", "value": "significantly improved"},
      {"measurement": "protection against lethal meningococcal challenge", "setting": "[5]", "value": "protective"},
      {"measurement": "circulating endotoxin concentrations", "setting": "[17]; [19]", "value": "significantly lower"},
      {"measurement": "survival rates", "setting": "[17]; [19]", "value": "improved survival rates"},
      {"measurement": "lethal effect of endotoxins released by the infecting E. coli", "setting": "[17]; dose of 50 mg/kg, also when administered after endotoxin had circulated", "value": "blocked the lethal effect"},
      {"measurement": "survival rate with E. coli sepsis", "setting": "[17]", "value": "improve the survival rate"},
      {"measurement": "survival rate with E. coli sepsis", "setting": "[18]", "value": "improve the survival rate"},
      {"measurement": "physiological functions and survival rate", "setting": "[6]; 2.5 or 5 mg/kg before lethal endotoxin challenges", "value": "significantly improved"},
      {"measurement": "survival rates", "setting": "[6]; administered 30 min. after endotoxin challenge", "value": "improved survival rates"}
    ]}
  ]
}
